Assay: soluble fraction after stress (log2 fold change); higher = more stays soluble; pooled small domains, quantitative proteomics
Conditions: stress: 75 degC
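Also: 20 min heating vs room temperature control held 20 min.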

HMHGYLSDPAARLIRARRKTLSIRITQEGNLEIRAPLGMPKGEIEAFLKEKAQWIETHRAKVLAEYA
soluble fraction (log2): -2.84

HMHHDQQQITAELARIARNGLPGLTADNAIISRLDALNLLINIHDDRGADATPLRGLLPAIADELLRLT
soluble fraction (log2): 0.056

HMHHIDTAWFRGKMREHRLTQEAVGQAIGLERSMVSKIIKGTVSFNARKASAWAQLLRVSESEILERVGI
soluble fraction (log2): -2.58

HMHHIDYKQLRRINPVAARRAVLDYLESTGGNITKTAQVFSINRSVVYDILKKQASGDLSDRLRIP
soluble fraction (log2): -2.04

HMHIDQVIRERRLALGLTQEELANKIGVSAPAVSKWEKRVSYPDITLLPALARILGTDVNTLLTFS
soluble fraction (log2): -1.08

HMHIVQEGDSLYGIARQYRITVEELRSLNALETADVIVPYQKLYV
soluble fraction (log2): -0.851

HMHKPLRILVYEELRMLIMTGQIKPGTRMMEIDLAESMGVSRTPVREAIRQLEKDNLVTIEPRRGAYVSD
soluble fraction (log2): -2.71

HMHKYQVGETVYYTSPTFGRAAATGSYIVVKLLPSEGDDYQYRIKSSGEAFERVAKESQLDR
soluble fraction (log2): -0.57

HMHLIPRESTYEIDGRRFVVDSVNLDFGKVSLQDITFRNATGFPIFRSESIEFMRRLVEISEAQRIAEL
soluble fraction (log2): -0.0447

HMHLPDNAVSIISELKMTPEEVLELIGKLPHDFLFLPYSQRKKIIVDLIPNKDYKLLMSLIKKFML
soluble fraction (log2): -1.62

HMHLTRYQYKVETEQEAVGLKELSSVHDLQIKENEATFQADSDAIDEILKTLLLYGVKKLEATPPTLED
soluble fraction (log2): -0.211

HMHMSLTEKYKELTDLAVSAGVQNLNVREQDGVLYVDGDASGAVKQQLWDTYGKLDPDYTSGDLVLNI
soluble fraction (log2): 0.279

HMHNSPSPVATTILRFLQPVRAFVGDTEDMRTFGPFLREDVAMVPASQAKNLIRSGHAVEINP
soluble fraction (log2): -0.0107

HMHNSQTIIDNIKRIANEQNISLSKLAVISGLGKNTITSMTAKTNIKIETLTAIAKSLNVSIHDLTGE
soluble fraction (log2): -2.64

HMHPDHRTATVPDAAAGRRFDAVLAELFPQFSRSKLTTWIKSGEVLLNGEVPRPRDAVVGGETVSLNVVL
soluble fraction (log2): -0.554

HMHPMVEAYLADLDRALSGSDPREHAETMSAVREHLADAIAPDATAEQVRHALDELGPVEAIAAG
soluble fraction (log2): 0.0321

HMHPQISVEGVLPLKEAVEFVEREIISHAYSRYRATREVARHLGIDPSTVLRKAAKYGITVEPGKN
soluble fraction (log2): -1.07

HMHPRDREENKYLLLRGERIYEESIGEKRLYVEAALHKYEKALSSYDTGLIDEAKEEFKKFLEEIEEA
soluble fraction (log2): -0.271

HMHPVEPDDPDQHILFQHLRGQDQVHIDALIRLSGWTADKVSSTLLFMELQGLVKQLPGMYYALE
soluble fraction (log2): -0.806

HMHQAADFAGFITFNKDGVEQFSFGKYKNQTVVSVLEKDPGYYSWIQNADFPLYTKKILTAIRLAM
soluble fraction (log2): -1.06

HMHQALLEQSAEHAQQVKAYELLLTAERALDEENTEAFLSAMKSLKPLAENLDAKGKALYQELLPFVTEA
soluble fraction (log2): 0.485

HMHQAVTVTKPARLFTGPDGKGVVRSLDVGMMLYPTGEKQGMMWEVEDELGNKGWVSSTLLELS
soluble fraction (log2): 0.0637

HMHSEEAALLHRYIDSLEEPQHTVVVMRDIGGYSFEEIASVVQLKEAHIWMILSRARRKLRELYIKTMDHH
soluble fraction (log2): 0.0533

HMHSFFGDNIKKLRTAKKMSQEQLADIFGITKAGISYWETGRSEPNFATVQKLADFFGVTTSDLLGEA
soluble fraction (log2): -0.43

HMHSFGLHVRNLRKKSNLTLSQLSNASGLSLSAISKIENNQISPSFINLIRLAEGLKMHIADLVTVK
soluble fraction (log2): -2.2

HMHSGFHSAILDVDRAVKEGKTLYEALNKYPYIFDETFRSLVRAGEASGELPSILSKLALYLEEQSK
soluble fraction (log2): -2.04

HMHSLLDDIPNVGEKRKRILLTHFQSLEEIKAATVEELERLPQINRKAAESIYTFFHSQPIR
soluble fraction (log2): -0.735

HMHSRLEDIPGIGPRRRAMLLRHFGGLAELKAAGVEEIARVEGINMALAQRLWRALHGVPDPT
soluble fraction (log2): -0.641

HMHSVIALTIPADYAGLRLDQALAKLLPNWSRSRLQTWIAENRVILDGQITTIKQKVWGNELIQISPQD
soluble fraction (log2): -1.67

HMHTDQVLVMTRAVGQGEIVRNTDVGLTSVAVDRAVTTIPASQLDEIVGRHALVDLSAGQLLGSHSVGA
soluble fraction (log2): 0.109

HMHTNNALWAIADDMRARKDDGEFDTYREGYKWAANNIVKEGIHITAIKLEKAYHKAKSEGKV
soluble fraction (log2): -0.139

HMHVSIAENIRRIRTQHDMTQEEFGKVAAVSAMAVSQWENGRAVPRMGAVQRIADYFNISKGEVID
soluble fraction (log2): -0.699

HMHWDIAQADAKQEVMDSSDDKEAIERIQANMFKDPKDHDQEYANKILNDMIDEIKEKGLEAMQHKFAQE
soluble fraction (log2): -0.443

HMHYELTPDAEKQLSALGLTAELVERILEEANDRRPIPGTNRTVYSLHGYSVEFSNTNHKIVSVRKG
soluble fraction (log2): -0.882

HMIAAPFVVKDIRVDGVQPATGEAIISSLPVKVGQTATDADVSNVVRQLFSLNRFQNVQATREGNTLVIKV
soluble fraction (log2): -0.0493

HMIAGHLQIKNDYYYMVLSYTDSDGKRKQPWIPTGLPMKGNKKRAEKMLIETRQTYVPPVSSG
soluble fraction (log2): -3.41

HMIAIGDDARLDDAARFFRIAEDSYAAGDYRKSKENYIEARKLYAELGDHEKVNLINSKISAIDSIT
soluble fraction (log2): 0.0977

HMIAVIKPSATAEQKAGLVDWIRGQGIDVHISEGHDYTVLGLIGDTSKIDMDLIASLDIVDSVKRVA
soluble fraction (log2): -0.338

HMIDAHTTLLAKRLESKGFLALTDKSSAEEIYEEFGISKKAFKKALGALYKERLVRIGEDGVVWM
soluble fraction (log2): -1.67

HMIDDPTAVILRLVSEKQVIRRDDVVKALSVTPQKAYRLLKTMTTGGLLTRSGARRTTVYGLPDARER
soluble fraction (log2): 0.223

HMIDEKVQAADKSIEIGNLSPLKGLVTDDEMHELEKLFEKVMALKDFEVNDVGAGRKYIEAYVSFFKFAEG
soluble fraction (log2): -0.418

HMIDELNVGDIRFYLNRYGKEIQIEIIRIGDDGSVYARTMADNALFRVPEARLKNIGEKVPAEEVQRG
soluble fraction (log2): -1.42

HMIDFTHEDIERLWNAIVHYVPERQKSDMAIDFIKSLEDIGVEHDEIKASAEYDPKLEEAINTVY
soluble fraction (log2): -0.424

HMIDIDNLEKAAILLLSMGTEAAAKVMQKLSRDEVQRLISKMASLSGVSSIEAKWTLQQFFNQYREQSG
soluble fraction (log2): -0.786

HMIDLSELINKTGSAYTNLRPSGTAVIGDDRVDVVTEGTFVEKDRPVKVVAVEGQRVVVREVE
soluble fraction (log2): 0.209

HMIDMQIDTARFGTLGVDDDKIITFPKGLPGFEDERRFFLMDHSGSSKIKWLHSADNPGLALV
soluble fraction (log2): -0.0491

HMIDVGSKIRSLRKSKNISISTLAKNSDLSTGLISQIERNMVVPSIVAMWKISKALDINIGYFFE
soluble fraction (log2): -3.13

HMIEDMQQYIKEIRQMVSGRLDMTRNLEDEEIRDTIAELVAEESRKQYMTLTEKREVIEGVFNSMR
soluble fraction (log2): -0.0831

HMIEEIAVPEILGMQEEEAKAKIEGLGLVFNVTDRVKSNEYEKGEVMYQSVGPDDTTVKSGYPINVTISEG
soluble fraction (log2): 0.196

HMIEEIPYSQFMSMLEEGKIDKAEIYQDSIIFSTKPDEQGKAGYYSIAYMKDNVLADRLYDAGVEFTPII
soluble fraction (log2): 0.293

HMIEGEQVRLLRLLERQEGGMLPLGDKSPASDILLLTGMSKKTFKMAVGALYKAQMITMTPTSIKLVK
soluble fraction (log2): -3.18

HMIEGETPEQTMERVSKDPEIVQILQDPVMQGILAQARENPAALQDHMKNPEVYKKINMLIAAGVIRT
soluble fraction (log2): 0.278

HMIEGSSDWKPNMILDDGGDLTKIIHEEYQDLLDDIRGLSEETTTGVLRLYEMEKENSLAVPAINVND
soluble fraction (log2): 0.171

HMIEKGSDALEKELRKNNLSINEFLTNKNIDIILDELKLKDIDDLYVNIALGKYTPNQIIKIVNK
soluble fraction (log2): -0.0502

HMIELEGVISSVLAGTMFKVKLRGNGHEVLAHISGKMRKKFIRLVIGDAVKIEMSPYDMDKARIVYRI
soluble fraction (log2): -0.318

HMIELTTDYKKRVVEALVSARENYSGSDSDFARKWSIDKTVYSRLKKGYQEGLLSVGKYIELGMELNVSSR
soluble fraction (log2): -1.87

HMIENITIELNKKALALDFELNKDLPEGVLETIPTLVSLMVRFDPLTVSYHFLRDYIDALLESNLNVDL
soluble fraction (log2): -0.0886

HMIENMQEYVRHIRAAVSDRLDLTREVEDDEIREVISQIVAEESRQNYLSLGERQTVIETVFNSMR
soluble fraction (log2): -0.339

HMIERLVEFVHTLRHSGVRVSMAEAMDAAEALRHTPITERQIFKTALQSVLVKEHQDIPAFDAAFERFFL
soluble fraction (log2): -3.04

HMIESLKGILHKKDPTIAIIDVGGVRLSVNITLSTYEKLEEINSSIELLTYFNVREDAMELYG
soluble fraction (log2): -0.468

HMIETIIGAEGKVLETIDNFNQKGVVALAGKEWTARSADASIIPEGAKVSVVEISGVKLIVTQN
soluble fraction (log2): 0.251

HMIETLGDATFKRLKAMILDGTLEPGTRLSEKKFADHLGVSRTPVREAIGQLVSEGLAKRSAGSAPVVSS
soluble fraction (log2): -0.0859

HMIFSIIPGQIRLTKMEIADGYLVLYGFTPSKEIYNLHLNPALKSIFTSSETSFIPVSGGLKFMSTNKL
soluble fraction (log2): -2.35

HMIGAKVLVNGQLHRDSYGEGPGQTESNATRLVNYINMKGSHPYHVTTLDGGWRGWVTADSVQV
soluble fraction (log2): 0.139

HMIGDNNELFQKAQLTPREKEVALLLLQGETNSDIAKILYVGLSTVKKHISSIFEKTKVKSRTEFISKVR
soluble fraction (log2): -1.6

HMIGDYALILNIKGGSDWYLGNRVELLFTDGTSKIVTTDKDYNAKKDMVPTQIVTYKVNDNGEYSLKALPT
soluble fraction (log2): -2.13

HMIGEKLKEIREKTGMNKKEFAQYLGLKYTTYNNYETEAREPASDFLILISTKFDVSIDYLLGLQ
soluble fraction (log2): -1.15

HMIGIEALAGEIDRVRQVLTGGGGLSDVQLFSQLKALNEIKAALGASPDPRAPELVQRVDQLLEAAFRS
soluble fraction (log2): 0.395

HMIGIGSDVPNKLKPAIYSFGLVAVGEKSVIPDGVQIGKNTAVSGVTSKEDYPDGVLESGETLIKA
soluble fraction (log2): 0.186

HMIGKLTSSKLAAIHKMKTNELLAHFTEKGFLNINDAGKYILTQQGKDVGAEFKTSQYGGYFLWPENIE
soluble fraction (log2): -0.666

— the domain aggregation screens of Martell et al. (2025)
